This passage reports stoichiometry N and binding results from publication PMC4507180.

Series [1] concerns the target DndB protein of Salmonella enterica serovar Cerro 87 (Salmonella enterica serovar Cerro 87). Description: SEC; HiLoad 16/60 Superdex 200; 20 mM Tris-HCl pH 8.0, 150 mM NaCl; 0.7 mL/min; calibrated with myoglobin, ovalbumin, albumin, phosphorylase b, gamma-globulin; native mass 79 kDa. On the technique in general: Size exclusion chromatography separates by hydrodynamic size, large species first.

Series [2] has as its target T1, DndB (Salmonella enterica serovar Cerro 87) (UniProt E2D676).
T1 sequence: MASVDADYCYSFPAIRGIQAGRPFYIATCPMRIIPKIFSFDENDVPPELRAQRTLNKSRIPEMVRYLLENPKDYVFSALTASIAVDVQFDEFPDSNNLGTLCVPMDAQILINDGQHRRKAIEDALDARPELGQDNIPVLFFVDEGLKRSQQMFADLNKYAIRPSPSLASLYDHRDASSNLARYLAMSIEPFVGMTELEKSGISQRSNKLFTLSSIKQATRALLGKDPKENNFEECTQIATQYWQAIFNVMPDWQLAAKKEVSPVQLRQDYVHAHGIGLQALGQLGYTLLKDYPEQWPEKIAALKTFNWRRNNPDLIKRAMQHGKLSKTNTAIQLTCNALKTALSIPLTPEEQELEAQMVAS
Description: EMSA. The following applies: EMSA: 20 mM Tris-HCl pH 8.0, 50 mM KCl, 10 mM MgCl2, 5 mM EDTA, 10 mM DTT, 5% glycerol, room temperature 30 min, 20 nM DNA; footprinting: 25 C 30 min, 200 ng …. (In general: A gel shift assay detects complexes by their altered migration in electrophoresis.)

The target in series [3] is T2, DndB C29S C29S (Salmonella enterica serovar Cerro 87) (UniProt E2D676).
T2 sequence: T1 sequence with C29S
Put plainly: EMSA. The following applies: EMSA: 20 mM Tris-HCl pH 8.0, 50 mM KCl, 10 mM MgCl2, 5 mM EDTA, 10 mM DTT, 5% glycerol, room temperature 30 min, 20 nM DNA; footprinting: 25 C 30 min, 200 ng ….

Numbering of substitutions follows the chain as printed.

Substance “DndB protein of Salmonella enterica serovar Cerro 87 (natural protein)” registered a stoichiometry N in series [1] of 2.

On to “GCTGTAATCCGTGTAAAAATCGAATGAATTGAGTTACGTGATATTTTACGTAATGCTTAATAAAATTTATAGTTTTTTTTATGTTTTACGTGATTTTTTGCGTACAGGGTTCCATATCTGAGA (double strand) [B1]”, for which the binding in series [2] came out at 300 nM; in series [3], 90 nM.

In general, stoichiometry N refers to a count of units in the complex or per binding partner.
